# Values quoted from earlier work in publication PMC5726790.
# Tests used:
# [1] = target: CCR7 (Mus musculus) (UniProt P47774)
# [2] = target: C5a receptor (Homo sapiens) (UniProt P21730)
# Chain of UniProt P21730 (P21730 whole entry): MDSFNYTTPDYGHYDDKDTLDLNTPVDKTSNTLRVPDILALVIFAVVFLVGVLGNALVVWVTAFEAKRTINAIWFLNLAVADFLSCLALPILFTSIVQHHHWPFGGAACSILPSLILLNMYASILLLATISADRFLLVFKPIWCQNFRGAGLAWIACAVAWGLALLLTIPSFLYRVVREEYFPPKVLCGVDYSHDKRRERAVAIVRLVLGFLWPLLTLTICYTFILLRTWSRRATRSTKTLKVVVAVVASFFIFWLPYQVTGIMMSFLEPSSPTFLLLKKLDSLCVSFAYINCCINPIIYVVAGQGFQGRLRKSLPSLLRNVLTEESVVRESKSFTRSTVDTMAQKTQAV
# Chain of UniProt P47774 (P47774 25-378): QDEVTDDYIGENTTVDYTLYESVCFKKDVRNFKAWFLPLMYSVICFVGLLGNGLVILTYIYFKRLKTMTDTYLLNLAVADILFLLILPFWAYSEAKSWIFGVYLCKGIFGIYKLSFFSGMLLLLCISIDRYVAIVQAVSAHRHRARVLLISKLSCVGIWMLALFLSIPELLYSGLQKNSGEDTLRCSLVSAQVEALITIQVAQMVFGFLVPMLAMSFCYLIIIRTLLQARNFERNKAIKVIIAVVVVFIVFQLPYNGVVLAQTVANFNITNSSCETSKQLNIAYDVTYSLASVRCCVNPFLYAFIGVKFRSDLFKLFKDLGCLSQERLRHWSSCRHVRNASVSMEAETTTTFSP
Kd [1] [nM],Kd [2] [nM],Substance
1.5,,CCL19 (from UniProt O70460)
,1,C5a C5a (from UniProt P01031)
